The data set addresses interleukin-6 (IL-6), human recombinant (Homo sapiens, UniProt P05231 30-212). Put plainly: SWCNT near-infrared fluorescence quenching, (7,5) chirality; SWCNT complex, 5250 ng/mL IL-6, 1X PBS, 3 h; no response, p=0.65903; 0.5 mg/L SWCNT-ssDNA in 1X PBS (or 1X PBS + 10% FBS), 5250 ng/mL IL-6, 120 uL, triplicate, up to 180 min; pH and temperature not stated. Particulars: protein: commercial; label: noncovalently adsorbed on SWCNT.

Chain of interleukin-6 (IL-6), human recombinant (P05231 30-212): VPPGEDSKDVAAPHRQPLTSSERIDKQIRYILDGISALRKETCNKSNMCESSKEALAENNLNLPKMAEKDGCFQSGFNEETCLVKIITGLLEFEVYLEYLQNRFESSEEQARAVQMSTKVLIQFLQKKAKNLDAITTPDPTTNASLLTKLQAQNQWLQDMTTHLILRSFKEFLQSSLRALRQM

Regarding GTGTGTGTGTGTGTGTGTGTGTGTGTGTGT (ssDNA) [(GT)15], the binding result was “no binding”.

For the origin of these results see article doi:10.1101/2024.04.05.588290, “An optical aptamer-based cytokine nanosensor detects macrophage activation by bacterial toxins”.
